# B1: purified catalytic domain of MT5-MMP (MMP-25) (protein)
# chain: YALSGSVWKKRTLTWRVRSFPQSSQLSQETVRVLMSYALMAWGMESGLTFHEVDSPQGQEPDILIDFARAFHQDSYPFDGLGGTLAHAFFPGEHPISGDTHFDDEETWTFGSKDGEGTDLFAVAVHEFGHALGLGHSSAPNSIMRPFYQGPVGDPDKYRLSQDDRDGLQQLYG
# Target: gDHER2(DIV)-IgG, P04626
protein,measurement,value
B1,"in vitro HER2 cleavage (sheddase) assay, stained gel",All MT-MMPs except MMP-14 efficiently cleave gDHER2(DIV)-IgG substrate

# From patent publication US20060177448
